These are literature values, as cited in paper PMC3201939.

The target of the data set is Cys22 (UniProt position 23, FIKPTCPYCRR).

As to “Glutaredoxin 1 (Grx1, thioltransferase) (Homo sapiens)”, the pKa is listed as 3.5.
